In US20240092925A1 (NANJING IASO BIOTECHNOLOGY, published 2024):

T1: Recombinant biotinylated Human CD19 Protein-Fc (Kactus, CD2-HE121) (human, UniProt P15391 20-291, biotinylated (site not stated))
T1 construct: bought; also called CD19-Fc-Bio; Kactus-CD19-FC-Bio; not shown: Fc tag
T1 sequence (looked up): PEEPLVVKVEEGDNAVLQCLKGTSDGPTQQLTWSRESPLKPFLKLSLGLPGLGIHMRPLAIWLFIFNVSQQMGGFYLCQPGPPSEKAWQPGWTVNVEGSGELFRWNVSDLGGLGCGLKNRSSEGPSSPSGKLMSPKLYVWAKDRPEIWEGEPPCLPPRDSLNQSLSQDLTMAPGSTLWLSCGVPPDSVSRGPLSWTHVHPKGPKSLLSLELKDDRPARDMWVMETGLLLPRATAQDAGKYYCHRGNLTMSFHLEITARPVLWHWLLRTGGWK

B1: phage monoclonal clone #42 (single-domain antibody) (VHH)
VHH: EVQLLESGGGLVQPGGSLRLSCAASGFTFSHSAMGWVRQAPGKGLEWVSSIYARGGYTYYADSVKGRFTISRDNSKNTLYLQMNSLRAEDTAVYYCARGYHLEYMVSQDVWGQGTLVTVSS
B2: phage monoclonal clone #60 (single-domain antibody) (VHH)
VHH: QVQLVESGGGLVQPGGSLRLSCAASGFTFSSYEMNWVRQAPGKGLEWVSYISSSGSTIYYADSVKGRFTISRDNAKNSLYLQMNSLRAEDTAVYYCARVAQREGDVWGKGTTVTVSS
B3: phage monoclonal clone #61 (single-domain antibody) (VHH)
VHH: QVQLVQSGAEVKKPGSSVKVSCKASGGTFSNYAISWVRQAPGQGLEWMGWISAYNGDTKYAQRLQGRVTMTTDTSTSTAYMELRNLRSDDTAVYYCARYESMSGQDIWGQGTLVTVSS
B4: phage monoclonal clone #62 (single-domain antibody) (VHH)
VHH: QVQLVQSGAEVKKPGESLRISCKASGYSFSNHWIGWVRQKPGKGLEWMGSVYPGDSDTRYSPSFQGHVTVSADKSMNTAYLQWSSLKTSDTAMYYCARGGTIDGDYGGRQDFWGQGTMVTVSS

Target: T2, Streptavidin (Pierce, 21125) (UniProt P22629 37-163, limits assumed)
T2 construct: coated on the ELISA plate; non-related antigen; also called SA
T2 sequence (P22629 37-163 limits assumed): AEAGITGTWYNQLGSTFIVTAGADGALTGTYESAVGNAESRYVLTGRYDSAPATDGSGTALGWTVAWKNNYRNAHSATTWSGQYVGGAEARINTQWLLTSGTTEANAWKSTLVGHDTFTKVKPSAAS
Experiment: phage ELISA

Binder | binding result
B1 | no binding
B2 | no binding
B3 | no binding
B4 | no binding

Target: T1, Recombinant biotinylated Human CD19 …
Experiment: phage ELISA

Binder | binding result
B1 | no binding
B2 | no binding
B3 | no binding
B4 | no binding

Target: T3, Biotinylated Recombinant human BAFFR Protein (Kactus, BAF-HM40RB) (human, UniProt Q96RJ3 7-71, limits assumed, biotinylated (site not stated))
T3 construct: bought; also called Kactus-BAFFR-his-Bio; not shown: his tag
T3 sequence (Q96RJ3 7-71 limits assumed): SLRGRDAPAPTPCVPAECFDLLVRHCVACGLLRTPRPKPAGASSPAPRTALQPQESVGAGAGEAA
Experiment: phage ELISA

Binder | binding result
B1 | no binding
B2 | no binding
B3 | no binding
B4 | no binding
